Measurements published in IntAct's records for PubMed 32296183.

B1: Golgi SNAP receptor complex member 2 (Homo sapiens), O14653 (parent)
chain: MDPLFQQTHKQVHEIQSCMGRLETADKQSVHIVENEIQASIDQIFSRLERLEILSSKEPPNKRQNARLRVDQLKYDVQHLQTALRNFQHRRHAREQQERQREELLSRTFTTNDSDTTIPMDESLQFNSSLQKVHNGMDDLILDGHNILDGLRTQRLTLKGTQKKILDIANMLGLSNTVMRLIEKRAFQDKYFMIGGMLLTCVVMFLVVQYLT
partner: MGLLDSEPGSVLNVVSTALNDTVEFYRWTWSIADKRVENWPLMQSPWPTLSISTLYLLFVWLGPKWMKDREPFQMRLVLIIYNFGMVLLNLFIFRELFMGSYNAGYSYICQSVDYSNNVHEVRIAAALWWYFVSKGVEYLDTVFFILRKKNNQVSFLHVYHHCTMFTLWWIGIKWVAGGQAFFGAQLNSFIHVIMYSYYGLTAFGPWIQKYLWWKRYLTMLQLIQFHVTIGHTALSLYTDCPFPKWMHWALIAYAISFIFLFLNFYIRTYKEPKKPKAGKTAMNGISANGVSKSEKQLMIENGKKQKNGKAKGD
B2: Very-long-chain enoyl-CoA reductase (Homo sapiens), Q9NZ01 (parent)
chain: MKHYEVEILDAKTREKLCFLDKVEPHATIAEIKNLFTKTHPQWYPARQSLRLDPKGKSLKDEDVLQKLPVGTTATLYFRDLGAQISWVTVFLTEYAGPLFIYLLFYFRVPFIYGHKYDFTSSRHTVVHLACICHSFHYIKRLLETLFVHRFSHGTMPLRNIFKNCTYYWGFAAWMAYYINHPLYTPPTYGAQQVKLALAIFVICQLGNFSIHMALRDLRPAGSKTRKIPYPTKNPFTWLFLLVSCPNYTYEVGSWIGFAIMTQCLPVALFSLVGFTQMTIWAKGKHRSYLKEFRDYPPLRMPIIPFLL
B3: Golgi SNAP receptor complex member 2 (Homo sapiens), O14653 (parent)
chain: B1 chain
partner: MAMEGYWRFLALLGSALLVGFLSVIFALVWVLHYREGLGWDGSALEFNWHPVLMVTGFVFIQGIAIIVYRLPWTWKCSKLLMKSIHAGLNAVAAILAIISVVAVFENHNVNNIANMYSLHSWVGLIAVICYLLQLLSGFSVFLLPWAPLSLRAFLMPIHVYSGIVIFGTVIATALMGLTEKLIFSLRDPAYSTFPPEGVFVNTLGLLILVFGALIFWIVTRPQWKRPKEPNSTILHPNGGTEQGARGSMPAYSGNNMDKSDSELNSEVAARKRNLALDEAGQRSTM
B4: Very-long-chain enoyl-CoA reductase (Homo sapiens), Q9NZ01 (parent)
chain: B2 chain
partner: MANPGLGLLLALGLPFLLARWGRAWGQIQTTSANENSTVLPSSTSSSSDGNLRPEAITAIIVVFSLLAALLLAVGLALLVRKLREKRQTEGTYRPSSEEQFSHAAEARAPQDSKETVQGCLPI
B5: Golgi SNAP receptor complex member 2 (Homo sapiens), O14653 (parent)
chain: B1 chain
partner: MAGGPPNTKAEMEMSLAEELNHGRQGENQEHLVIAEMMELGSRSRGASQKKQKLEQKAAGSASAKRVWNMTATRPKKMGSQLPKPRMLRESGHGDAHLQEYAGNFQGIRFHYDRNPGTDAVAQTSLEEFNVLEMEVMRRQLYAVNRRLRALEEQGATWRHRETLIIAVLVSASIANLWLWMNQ
B6: Golgi SNAP receptor complex member 2 (Homo sapiens), O14653 (parent)
chain: B1 chain
partner: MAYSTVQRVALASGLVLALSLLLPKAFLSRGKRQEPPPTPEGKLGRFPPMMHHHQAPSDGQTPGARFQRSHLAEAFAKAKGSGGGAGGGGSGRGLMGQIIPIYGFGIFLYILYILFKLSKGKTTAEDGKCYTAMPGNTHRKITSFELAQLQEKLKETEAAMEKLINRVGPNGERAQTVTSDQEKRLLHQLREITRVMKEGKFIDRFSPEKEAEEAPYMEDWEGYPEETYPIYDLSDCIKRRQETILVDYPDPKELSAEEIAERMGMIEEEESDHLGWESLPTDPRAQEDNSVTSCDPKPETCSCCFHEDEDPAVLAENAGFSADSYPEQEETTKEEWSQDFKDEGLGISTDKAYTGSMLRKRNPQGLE

Variants of: B1
Details: with elov4_human ELOVL4, Q9GZR5

Variant | effect of a mutation on the interaction
G144W | with no effect

Variants of: B2
Details: with ergi3_human ERGIC3, Q9Y282
Chain of ergi3_human ERGIC3, Q9Y282 (Q9Y282 whole entry): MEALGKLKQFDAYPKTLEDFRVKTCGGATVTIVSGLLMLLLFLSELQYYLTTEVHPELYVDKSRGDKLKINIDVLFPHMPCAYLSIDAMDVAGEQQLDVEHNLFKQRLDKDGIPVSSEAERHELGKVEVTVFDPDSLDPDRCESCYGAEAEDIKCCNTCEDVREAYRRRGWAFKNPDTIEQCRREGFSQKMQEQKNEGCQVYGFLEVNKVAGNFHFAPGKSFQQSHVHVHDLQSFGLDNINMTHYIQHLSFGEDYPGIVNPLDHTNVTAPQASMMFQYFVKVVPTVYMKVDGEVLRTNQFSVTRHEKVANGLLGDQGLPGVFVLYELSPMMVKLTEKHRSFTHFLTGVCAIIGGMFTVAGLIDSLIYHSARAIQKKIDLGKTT

Variant | effect of a mutation on the interaction
P182L | disrupting interaction strength

Variants of: B2
Details: with cd79a_human CD79A

Variant | effect of a mutation on the interaction
P182L | disrupting interaction strength

Variants of: B2
Details: with MUC1, P15941-11
Chain of MUC1, P15941-11 (P15941 other isoform, or with tags, fused parts or gaps): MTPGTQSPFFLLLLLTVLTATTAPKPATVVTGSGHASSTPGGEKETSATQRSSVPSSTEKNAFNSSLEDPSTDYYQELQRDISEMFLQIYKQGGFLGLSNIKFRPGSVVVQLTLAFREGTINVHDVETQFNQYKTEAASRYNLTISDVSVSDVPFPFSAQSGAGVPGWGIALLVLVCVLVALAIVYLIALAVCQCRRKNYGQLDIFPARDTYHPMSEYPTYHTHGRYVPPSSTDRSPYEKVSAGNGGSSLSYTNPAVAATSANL

Variant | effect of a mutation on the interaction
P182L | disrupting interaction strength

Variants of: B2
Details: with ar13b_human ARL13B

Variant | effect of a mutation on the interaction
P182L | disrupting interaction strength

Variants of: B2
Details: with SLC7A14, Q8TBB6
Chain of SLC7A14, Q8TBB6 (Q8TBB6 whole entry): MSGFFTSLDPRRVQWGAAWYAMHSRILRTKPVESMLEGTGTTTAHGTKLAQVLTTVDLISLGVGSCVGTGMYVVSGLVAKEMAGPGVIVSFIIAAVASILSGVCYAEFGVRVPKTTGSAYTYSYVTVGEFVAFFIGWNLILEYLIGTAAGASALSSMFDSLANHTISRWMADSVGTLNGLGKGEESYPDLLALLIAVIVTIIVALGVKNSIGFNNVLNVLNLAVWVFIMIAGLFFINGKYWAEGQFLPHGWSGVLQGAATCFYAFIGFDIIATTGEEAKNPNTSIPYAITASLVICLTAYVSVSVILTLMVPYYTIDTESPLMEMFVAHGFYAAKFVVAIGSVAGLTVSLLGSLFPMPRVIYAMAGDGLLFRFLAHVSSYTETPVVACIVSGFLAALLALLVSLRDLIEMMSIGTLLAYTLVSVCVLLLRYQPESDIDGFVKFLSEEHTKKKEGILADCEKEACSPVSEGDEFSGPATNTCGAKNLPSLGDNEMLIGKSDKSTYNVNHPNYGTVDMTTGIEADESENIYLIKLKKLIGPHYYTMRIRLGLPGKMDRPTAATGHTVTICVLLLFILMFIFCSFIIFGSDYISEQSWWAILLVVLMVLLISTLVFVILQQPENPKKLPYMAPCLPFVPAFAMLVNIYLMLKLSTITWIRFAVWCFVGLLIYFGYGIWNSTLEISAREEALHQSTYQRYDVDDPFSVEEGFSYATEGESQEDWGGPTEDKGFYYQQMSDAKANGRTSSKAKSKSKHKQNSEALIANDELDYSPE

Variant | effect of a mutation on the interaction
P182L | disrupting interaction strength

Variants of: B2
Details: with sting_human STING1, Q86WV6
Chain of sting_human STING1, Q86WV6 (Q86WV6 whole entry): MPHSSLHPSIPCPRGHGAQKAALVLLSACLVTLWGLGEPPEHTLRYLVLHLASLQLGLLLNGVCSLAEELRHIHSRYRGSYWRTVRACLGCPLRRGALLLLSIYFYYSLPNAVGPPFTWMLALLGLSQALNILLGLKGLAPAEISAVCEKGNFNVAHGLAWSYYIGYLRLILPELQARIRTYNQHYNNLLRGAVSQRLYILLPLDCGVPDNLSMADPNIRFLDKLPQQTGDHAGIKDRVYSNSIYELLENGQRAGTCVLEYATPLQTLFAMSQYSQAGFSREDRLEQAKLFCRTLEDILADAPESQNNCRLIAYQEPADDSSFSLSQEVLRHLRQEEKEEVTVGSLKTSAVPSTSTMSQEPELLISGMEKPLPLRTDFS

Variant | effect of a mutation on the interaction
P182L | with no effect

Variants of: B3
Details: with cybr1_human CYBRD1, Q53TN4

Variant | effect of a mutation on the interaction
G144W | with no effect

Variants of: B4
Details: with CRB3, Q9BUF7-2

Variant | effect of a mutation on the interaction
P182L | disrupting interaction strength

Variants of: B5
Details: with fate1_human FATE1, Q969F0

Variant | effect of a mutation on the interaction
G144W | with no effect

Variants of: B6
Details: with RIC3, Q7Z5B4-5

Variant | effect of a mutation on the interaction
G144W | disrupting interaction strength
